target: T1, recombinant human ROR1 extracellular domain (human, UniProt Q01973 30-406); test: ELISA, soluble Fab on coated huROR1-ECD
T1 construct: biotinylated for the filter lifts; also called huROR1-ECD; human ROR1-ECD
Description: The previously described filter lift assay provides a visual, qualitative assessment of antigen binding (Example 1). In order to assess the ROR1 binding activity of Ab1 Fab in a more quantitative fashion, an ELISA assay was developed. A 96-well Costar-3366 plate was coated with 50 μL/well of 1 μg/mL human ROR1-ECD (ACROBiosystems, cat. #RO1-H522y) in PBS overnight at 4° C. The plate was rinsed once with PBS-T and blocked with 100 μL/well of 5% M-P for 1 h at 25° C. Fab samples were serially diluted 3-fold using 5% M-P and 50 μL/well was incubated for 1 h at 25° C. The plate was washed three times with PBS-T and 50 μL/well anti-human kappa, and HRP conjugate (Southern Biotech, cat. #2060-05) diluted 10,000-fold in 5% M-P was added for 1 h at 25° C. In certain assays (extended wash format), the plate was placed in large volumes (up to 1 L) of PBS-T and incubated, with mixing, for 2-5 h prior to the addition of anti-human kappa, HRP conjugate. The plate was washed three times with PBS-T, and developed with 50 μL/well 1-Step Ultra TMB-ELISA (Thermo Scientific, cat. #34028). The reaction was terminated by the addition of 2 N H2504 and the A450 was determined using a Spectramax plate reader.

T1 sequence (Q01973 30-406 limits assumed): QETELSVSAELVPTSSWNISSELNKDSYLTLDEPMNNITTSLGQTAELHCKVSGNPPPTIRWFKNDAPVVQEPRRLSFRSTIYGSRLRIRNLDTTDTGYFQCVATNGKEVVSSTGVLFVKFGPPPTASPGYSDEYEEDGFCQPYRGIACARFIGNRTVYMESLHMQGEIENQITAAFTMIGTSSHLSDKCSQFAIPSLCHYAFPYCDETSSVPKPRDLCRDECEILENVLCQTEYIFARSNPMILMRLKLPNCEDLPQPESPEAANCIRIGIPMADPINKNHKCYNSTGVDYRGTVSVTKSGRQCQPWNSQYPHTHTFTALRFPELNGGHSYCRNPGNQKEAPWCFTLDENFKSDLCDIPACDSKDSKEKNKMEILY

Row | Kd | Binder
1 | 0.6 nM | Ab1 Fab variant H2 G67P (Fab, V domains shown, Fab) VH: QVQLQESGPGLVKPSQTLSLTCTVSGYAFTAYNIHWVRQAPGQGLEWMGSFDPYDGPSSYNQKFKDRLTISKDTSKNQVVLTMTNMDPVDTATYYCARGWYYFDYWGHGTLVTVSS VL: DIVMTQTPLSLPVTPGEPASISCRASKSISKYLAWYQQKPGQAPRLLIYSGSTLQSGIPPRFSGSGYGTDFTLTINNIESEDAAYYFCQQHDESPYTFGEGTKVEIK
2 | 1.2 nM | Ab1 Fab variant H2 S69E (Fab, V domains shown, Fab) VH: QVQLQESGPGLVKPSQTLSLTCTVSGYAFTAYNIHWVRQAPGQGLEWMGSFDPYDGGSEYNQKFKDRLTISKDTSKNQVVLTMTNMDPVDTATYYCARGWYYFDYWGHGTLVTVSS VL: DIVMTQTPLSLPVTPGEPASISCRASKSISKYLAWYQQKPGQAPRLLIYSGSTLQSGIPPRFSGSGYGTDFTLTINNIESEDAAYYFCQQHDESPYTFGEGTKVEIK
3 | 0.7 nM | Ab1 Fab variant L1 A25P (Fab, V domains shown, Fab) VH: QVQLQESGPGLVKPSQTLSLTCTVSGYAFTAYNIHWVRQAPGQGLEWMGSFDPYDGGSSYNQKFKDRLTISKDTSKNQVVLTMTNMDPVDTATYYCARGWYYFDYWGHGTLVTVSS VL: DIVMTQTPLSLPVTPGEPASISCRPSKSISKYLAWYQQKPGQAPRLLIYSGSTLQSGIPPRFSGSGYGTDFTLTINNIESEDAAYYFCQQHDESPYTFGEGTKVEIK
4 | 1.2 nM | Ab1 Fab variant H2 S68A (Fab, V domains shown, Fab) VH: QVQLQESGPGLVKPSQTLSLTCTVSGYAFTAYNIHWVRQAPGQGLEWMGSFDPYDGGASYNQKFKDRLTISKDTSKNQVVLTMTNMDPVDTATYYCARGWYYFDYWGHGTLVTVSS VL: DIVMTQTPLSLPVTPGEPASISCRASKSISKYLAWYQQKPGQAPRLLIYSGSTLQSGIPPRFSGSGYGTDFTLTINNIESEDAAYYFCQQHDESPYTFGEGTKVEIK
5 | < 1 nM | Ab1 Fab variant H2 G67Q (Fab, V domains shown, Fab) VH: QVQLQESGPGLVKPSQTLSLTCTVSGYAFTAYNIHWVRQAPGQGLEWMGSFDPYDGQSSYNQKFKDRLTISKDTSKNQVVLTMTNMDPVDTATYYCARGWYYFDYWGHGTLVTVSS VL: DIVMTQTPLSLPVTPGEPASISCRASKSISKYLAWYQQKPGQAPRLLIYSGSTLQSGIPPRFSGSGYGTDFTLTINNIESEDAAYYFCQQHDESPYTFGEGTKVEIK
6 | 6.4 nM | Ab1 Fab variant H2 S68T (Fab, V domains shown, Fab) VH: QVQLQESGPGLVKPSQTLSLTCTVSGYAFTAYNIHWVRQAPGQGLEWMGSFDPYDGGTSYNQKFKDRLTISKDTSKNQVVLTMTNMDPVDTATYYCARGWYYFDYWGHGTLVTVSS VL: DIVMTQTPLSLPVTPGEPASISCRASKSISKYLAWYQQKPGQAPRLLIYSGSTLQSGIPPRFSGSGYGTDFTLTINNIESEDAAYYFCQQHDESPYTFGEGTKVEIK
7 | 1.5 nM | Ab1 Fab variant H2 N71G (Fab, V domains shown, Fab) VH: QVQLQESGPGLVKPSQTLSLTCTVSGYAFTAYNIHWVRQAPGQGLEWMGSFDPYDGGSSYGQKFKDRLTISKDTSKNQVVLTMTNMDPVDTATYYCARGWYYFDYWGHGTLVTVSS VL: DIVMTQTPLSLPVTPGEPASISCRASKSISKYLAWYQQKPGQAPRLLIYSGSTLQSGIPPRFSGSGYGTDFTLTINNIESEDAAYYFCQQHDESPYTFGEGTKVEIK
8 | 1 nM | Ab1 Fab variant H2 S69V (Fab, V domains shown, Fab) VH: QVQLQESGPGLVKPSQTLSLTCTVSGYAFTAYNIHWVRQAPGQGLEWMGSFDPYDGGSVYNQKFKDRLTISKDTSKNQVVLTMTNMDPVDTATYYCARGWYYFDYWGHGTLVTVSS VL: DIVMTQTPLSLPVTPGEPASISCRASKSISKYLAWYQQKPGQAPRLLIYSGSTLQSGIPPRFSGSGYGTDFTLTINNIESEDAAYYFCQQHDESPYTFGEGTKVEIK
9 | 46 nM | Ab1 Fab variant H2 S69K (Fab, V domains shown, Fab) VH: QVQLQESGPGLVKPSQTLSLTCTVSGYAFTAYNIHWVRQAPGQGLEWMGSFDPYDGGSKYNQKFKDRLTISKDTSKNQVVLTMTNMDPVDTATYYCARGWYYFDYWGHGTLVTVSS VL: DIVMTQTPLSLPVTPGEPASISCRASKSISKYLAWYQQKPGQAPRLLIYSGSTLQSGIPPRFSGSGYGTDFTLTINNIESEDAAYYFCQQHDESPYTFGEGTKVEIK
10 | 1.7 nM | Ab1 Fab variant H2 G67R (Fab, V domains shown, Fab) VH: QVQLQESGPGLVKPSQTLSLTCTVSGYAFTAYNIHWVRQAPGQGLEWMGSFDPYDGRSSYNQKFKDRLTISKDTSKNQVVLTMTNMDPVDTATYYCARGWYYFDYWGHGTLVTVSS VL: DIVMTQTPLSLPVTPGEPASISCRASKSISKYLAWYQQKPGQAPRLLIYSGSTLQSGIPPRFSGSGYGTDFTLTINNIESEDAAYYFCQQHDESPYTFGEGTKVEIK
11 | 6.3 nM | Ab1 Fab variant H2 G67Y (Fab, V domains shown, Fab) VH: QVQLQESGPGLVKPSQTLSLTCTVSGYAFTAYNIHWVRQAPGQGLEWMGSFDPYDGYSSYNQKFKDRLTISKDTSKNQVVLTMTNMDPVDTATYYCARGWYYFDYWGHGTLVTVSS VL: DIVMTQTPLSLPVTPGEPASISCRASKSISKYLAWYQQKPGQAPRLLIYSGSTLQSGIPPRFSGSGYGTDFTLTINNIESEDAAYYFCQQHDESPYTFGEGTKVEIK

More lines, now with the values behind:

Row | Binder | Kd
12 | Ab1 Fab variant L1 I31V (Fab, V domains shown, Fab) VH: QVQLQESGPGLVKPSQTLSLTCTVSGYAFTAYNIHWVRQAPGQGLEWMGSFDPYDGGSSYNQKFKDRLTISKDTSKNQVVLTMTNMDPVDTATYYCARGWYYFDYWGHGTLVTVSS VL: DIVMTQTPLSLPVTPGEPASISCRASKSVSKYLAWYQQKPGQAPRLLIYSGSTLQSGIPPRFSGSGYGTDFTLTINNIESEDAAYYFCQQHDESPYTFGEGTKVEIK | 2.8 nM
13 | Ab1 Fab variant L1 K29E (Fab, V domains shown, Fab) VH: QVQLQESGPGLVKPSQTLSLTCTVSGYAFTAYNIHWVRQAPGQGLEWMGSFDPYDGGSSYNQKFKDRLTISKDTSKNQVVLTMTNMDPVDTATYYCARGWYYFDYWGHGTLVTVSS VL: DIVMTQTPLSLPVTPGEPASISCRASESISKYLAWYQQKPGQAPRLLIYSGSTLQSGIPPRFSGSGYGTDFTLTINNIESEDAAYYFCQQHDESPYTFGEGTKVEIK | 1.2 nM
14 | Ab1 Fab variant H2 N71H (Fab, V domains shown, Fab) VH: QVQLQESGPGLVKPSQTLSLTCTVSGYAFTAYNIHWVRQAPGQGLEWMGSFDPYDGGSSYHQKFKDRLTISKDTSKNQVVLTMTNMDPVDTATYYCARGWYYFDYWGHGTLVTVSS VL: DIVMTQTPLSLPVTPGEPASISCRASKSISKYLAWYQQKPGQAPRLLIYSGSTLQSGIPPRFSGSGYGTDFTLTINNIESEDAAYYFCQQHDESPYTFGEGTKVEIK | 1.1 nM
15 | Ab1 Fab variant L1 L41M (Fab, V domains shown, Fab) VH: QVQLQESGPGLVKPSQTLSLTCTVSGYAFTAYNIHWVRQAPGQGLEWMGSFDPYDGGSSYNQKFKDRLTISKDTSKNQVVLTMTNMDPVDTATYYCARGWYYFDYWGHGTLVTVSS VL: DIVMTQTPLSLPVTPGEPASISCRASKSISKYMAWYQQKPGQAPRLLIYSGSTLQSGIPPRFSGSGYGTDFTLTINNIESEDAAYYFCQQHDESPYTFGEGTKVEIK | 1.3 nM
16 | Ab1 Fab variant H2 Y70V (Fab, V domains shown, Fab) VH: QVQLQESGPGLVKPSQTLSLTCTVSGYAFTAYNIHWVRQAPGQGLEWMGSFDPYDGGSSVNQKFKDRLTISKDTSKNQVVLTMTNMDPVDTATYYCARGWYYFDYWGHGTLVTVSS VL: DIVMTQTPLSLPVTPGEPASISCRASKSISKYLAWYQQKPGQAPRLLIYSGSTLQSGIPPRFSGSGYGTDFTLTINNIESEDAAYYFCQQHDESPYTFGEGTKVEIK | 1.5 nM
17 | Ab1 Fab variant L1 K29S (Fab, V domains shown, Fab) VH: QVQLQESGPGLVKPSQTLSLTCTVSGYAFTAYNIHWVRQAPGQGLEWMGSFDPYDGGSSYNQKFKDRLTISKDTSKNQVVLTMTNMDPVDTATYYCARGWYYFDYWGHGTLVTVSS VL: DIVMTQTPLSLPVTPGEPASISCRASSSISKYLAWYQQKPGQAPRLLIYSGSTLQSGIPPRFSGSGYGTDFTLTINNIESEDAAYYFCQQHDESPYTFGEGTKVEIK | 0.9 nM
18 | Ab1 Fab variant H2 N71S (Fab, V domains shown, Fab) VH: QVQLQESGPGLVKPSQTLSLTCTVSGYAFTAYNIHWVRQAPGQGLEWMGSFDPYDGGSSYSQKFKDRLTISKDTSKNQVVLTMTNMDPVDTATYYCARGWYYFDYWGHGTLVTVSS VL: DIVMTQTPLSLPVTPGEPASISCRASKSISKYLAWYQQKPGQAPRLLIYSGSTLQSGIPPRFSGSGYGTDFTLTINNIESEDAAYYFCQQHDESPYTFGEGTKVEIK | 1.2 nM
19 | Ab1 Fab variant H2 Y70I (Fab, V domains shown, Fab) VH: QVQLQESGPGLVKPSQTLSLTCTVSGYAFTAYNIHWVRQAPGQGLEWMGSFDPYDGGSSINQKFKDRLTISKDTSKNQVVLTMTNMDPVDTATYYCARGWYYFDYWGHGTLVTVSS VL: DIVMTQTPLSLPVTPGEPASISCRASKSISKYLAWYQQKPGQAPRLLIYSGSTLQSGIPPRFSGSGYGTDFTLTINNIESEDAAYYFCQQHDESPYTFGEGTKVEIK | 1.7 nM
20 | Ab1 Fab variant H2 N71A (Fab, V domains shown, Fab) VH: QVQLQESGPGLVKPSQTLSLTCTVSGYAFTAYNIHWVRQAPGQGLEWMGSFDPYDGGSSYAQKFKDRLTISKDTSKNQVVLTMTNMDPVDTATYYCARGWYYFDYWGHGTLVTVSS VL: DIVMTQTPLSLPVTPGEPASISCRASKSISKYLAWYQQKPGQAPRLLIYSGSTLQSGIPPRFSGSGYGTDFTLTINNIESEDAAYYFCQQHDESPYTFGEGTKVEIK | 1.3 nM

From patent US20230021388A1 (VELOSBIO, published 2023)
